How the values were obtained:
[1] = molecular target: branching enzyme IIb (HvBeIIb) of barley endosperm extract (barley (endogenous in Hordeum vulgare 'QUENCH' endosperm)); test: SEC; total barley endosperm soluble protein on a 26/60 Superdex S-200 column; fractions analysed by immunoblot (anti-HvPho1, anti-HvBeIIb polyclonal antibodies) and native activity gels; extract with or without 1 mM ATP and 2.5 mM protein phosphatase inhibitor cocktail before SEC
[2] = molecular target: HvPho1ΔL78 (HvPho1 lacking the L78 insertion) (barley (Hordeum vulgare)); test: SEC; single recombinant proteins on HiLoad Superdex S-200 26/60, 25 mM HEPES pH 7.5, 50 mM NaCl; apparent molecular weight by column calibration; peak fractions also analysed by DLS at 25°C
[3] = molecular target: recombinant barley plastidic starch phosphorylase (HvPho1) (barley (Hordeum vulgare)); test: as above
[4] = molecular target: recombinant barley plastidic starch phosphorylase (HvPho1) (barley (Hordeum vulgare)); test: cross-linking; recombinant HvPho1 (1 mg/ml) in 20 mM HEPES pH 7.5 treated with glutaraldehyde (0.15% v/v) for 0.5 to 30 min at 37°C; SDS-PAGE

With “branching enzyme IIb (HvBeIIb) of barley endosperm extract” the stoichiometry N [1] was 2.

For “HvPho1ΔL78 (HvPho1 lacking the L78 insertion) (enzyme)”, the stoichiometry N [2] was 2.

For “recombinant barley plastidic starch phosphorylase (HvPho1) (enzyme)”, the stoichiometry N [3] was 2 and the stoichiometry N [4] was 2.

From article PMC5391026
